Test results published in US20070060522A1 (ENSION, published 2007).

Key:
[1] = molecular target: αMβ2 (Mac-1; CD11b/CD18) on human peripheral blood monocytes (human, UniProt P11215 17-1152; P05107 23-769); test: inferred from peptide blocking of monocyte/A375 adherence under flow
Description: Pre-treatment of tumor cells with P1 and monocytes with sFn or tumor cells with sFn and monocytes with P2 inhibited adherence to a similar level to that of sFn treatment of both cells (P>0.05 to fibrin; n=5 in each case).
Peptide Blocking of Cellular Adherence: After fluorescence labeling of each cell type, stock peptides were added to both confluent coverslips and/or 1 milliliter suspensions of monocytes (P1 and P2) and/or sFn solution (P3 and P4) for a final treatment concentration of 4 mM (4 uL added to 1 mL suspension). Cells were treated with peptides for 20 minutes at room temperature, followed directly by washing of cells (by centrifugation and resuspension—monocytes, or perfusion with RPMI 1640 for 10 min—tumor cells). For sFn peptide treatment, peptides remained in the sFn solution during incubation. Monocyte adherence to tumor cells under flow conditions was then performed as described above.

[2] = molecular target: T1, CD54 (ICAM-1) on A375 human melanoma cells (human, UniProt P05362 28-532); test: inferred from peptide blocking of monocyte/tumor cell adherence
T1 construct: whole, on cells; also called intercellular adhesion molecule-1
T1 sequence (P05362 28-532): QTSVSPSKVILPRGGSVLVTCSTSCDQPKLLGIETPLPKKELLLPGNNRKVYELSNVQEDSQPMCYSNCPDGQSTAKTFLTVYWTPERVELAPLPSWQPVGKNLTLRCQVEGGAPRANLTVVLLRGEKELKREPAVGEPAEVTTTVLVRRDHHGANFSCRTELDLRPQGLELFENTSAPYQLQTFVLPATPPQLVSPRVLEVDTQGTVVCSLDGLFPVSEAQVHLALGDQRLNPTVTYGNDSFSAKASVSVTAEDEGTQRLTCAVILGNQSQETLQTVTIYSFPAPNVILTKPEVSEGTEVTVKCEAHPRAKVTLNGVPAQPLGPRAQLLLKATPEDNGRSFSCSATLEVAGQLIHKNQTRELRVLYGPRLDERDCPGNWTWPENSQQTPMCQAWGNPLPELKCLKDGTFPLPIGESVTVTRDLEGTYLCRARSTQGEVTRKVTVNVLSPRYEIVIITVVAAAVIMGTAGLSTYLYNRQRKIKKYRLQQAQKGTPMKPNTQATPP

binding result [1] | binding result [2] | Binder
binds |  | YKSMKKTTMKIIPFNRLTIF (Synthetic peptide) [Peptide 2 (P2), YKSMKKTTMKIIPFNRLTIF]
 | binds | NNQKIVNLKEKVAQLEA (Synthetic peptide (Sigma-Genosys, 50% purity)) [Peptide 1 (P1), NNQKIVNLKEKVAQLEA]
